# Measured values published in article doi:10.1101/2020.09.04.283184 (bioRxiv, 2020).
# Target: the molecule itself
# Assay: PORT-HS-AFM
protein,measurement,value
"Chlamydomonas reinhardtii SAS-6[NL] homodimer (domain or fragment, UniProt A9CQL4 1-503, looked up) MPLLLDDGDPKAQTGFDLSTATTLFWRPVPVHVKQQDREDVLEELTFRILTGVAKQNHNLRILRIHISSDSDLFFLHTLEVSEEDFQSLKNDQGILVDFASFPGKIISLLEKCILAQPGDSPRFQAVLTIRGGESVFKIVEINDFKQLPHITLAFRPGNDSVVKQFLAFRLSEVKGTCHDLSDDLSRTRDDRDSMVAQLAQCRQQLAQLREQYDKHLLEVQAQAKTQQASAHEERIREKSQLKDQFEKERGEMEGRYRDQIAALNTRLGELDTENRKLREVKYELDTKVSELSHKLGSSEGSNRSLEEETARLRSLNQQLSSSKHELEIQLNEAKAKVLALDEKAQSQGDVIEQQRGRLRDMEAALRQTEQRCADLRDTLASAEGRAKEAQAEVLKGNQAIEKLTNDLRLAKEKTKRKAAIILRQEEELQEREQSLANATRDVGVLGQQAESLRKDVASLHSENDSLRSKLEDSKQQLQSNEQMIRWLNQQVTEAQLHASGAT",stoichiometry N,7 to 10 homodimers
